Experiments:
[1] = test system: CC(C)[C@H](NC[C@@]1(O)OC[C@@H](O)[C@@H](O)[C@@H]1O)C(=O)O; assay: H2O2 formation, peroxidase-coupled 4-AA/TOOS spectrophotometric assay; type: biochemical, Parastagonospora nodorum; conditions: oxidase activity, O2 as electron acceptor, 10 mM potassium phosphate pH 7.0, 298 K, 25.0 °C
Source text: (§1) H2O2 formation, peroxidase-coupled 4-AA/TOOS spectrophotometric assay on PnFPOX

PnFPOX = target: T1, PnFPOX (Parastagonospora nodorum, UniProt Q0UIL6); assay: X-ray crystal structure, […] Å; type: binding; conditions: covalent; bond to Cys343
T1 construct: gene SNOG_08398; His-tagged, pET22b (NdeI/XhoI), E. coli BL21(DE3); HisTrap purified; 49 kDa on SDS-PAGE
T1 sequence (Q0UIL6 1-437): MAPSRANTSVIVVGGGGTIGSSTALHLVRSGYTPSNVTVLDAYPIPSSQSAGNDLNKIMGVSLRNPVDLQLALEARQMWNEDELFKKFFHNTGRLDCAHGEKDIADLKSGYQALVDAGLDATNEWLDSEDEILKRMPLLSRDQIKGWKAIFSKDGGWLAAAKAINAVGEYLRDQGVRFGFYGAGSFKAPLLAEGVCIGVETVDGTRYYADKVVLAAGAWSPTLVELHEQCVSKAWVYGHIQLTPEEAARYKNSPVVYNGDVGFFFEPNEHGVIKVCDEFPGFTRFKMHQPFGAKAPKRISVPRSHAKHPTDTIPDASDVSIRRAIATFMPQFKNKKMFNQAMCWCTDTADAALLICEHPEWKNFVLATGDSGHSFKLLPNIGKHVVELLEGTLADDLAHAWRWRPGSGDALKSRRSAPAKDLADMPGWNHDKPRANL

[2] = substrate: CC(C)[C@H](NC[C@@]1(O)OC[C@@H](O)[C@@H](O)[C@@H]1O)C(=O)O; assay: H2O2 formation, peroxidase-coupled 4-AA/TOOS spectrophotometric assay; type: biochemical, Parastagonospora nodorum; conditions: oxidase activity, O2 as electron acceptor, 10 mM potassium phosphate pH 7.0, 298 K, 25.0 °C; remark: listed apart in the source
Source text: as §1

Q: For “PnFPOX (Parastagonospora nodorum SN15; D54A/N56A)”, which Km [1] is on record?
A: 14 ± 1.2 µM

Q: And the Vmax [1]?
A: 0.078 µmol/min/mg

Q: And the Vmax/Km [1]?
A: 5730 µL/min/mg

Q: How did the Km [1] turn out when “PnFPOX (Parastagonospora nodorum SN15; D54N/N56A)” was run?
A: 46 ± 3.7 µM

Q: With `Cc1cc2nc3c(=O)[nH]c(=O)nc-3n(C[C@H](O)[C@H](O)[C@H](O)COP(=O)(O)OP(=O)(O)OC[C@H]3O[C@@H](n4cnc5c(N)ncnc54)[C@H](O)[C@@H]3O)c2cc1C` [FAD] as the molecule, how does the “X-ray crystal structure, 1.83 Å” value (PnFPOX) read?
A: A covalent bond is formed between FAD and Cys343 of PnFPOX

B1: PnFPOX (Parastagonospora nodorum SN15) (protein)
chain: T1 sequence (Q0UIL6 1-437)
notes: His-tagged, pET22b (NdeI/XhoI), E. coli BL21(DE3); HisTrap purified; 49 kDa on SDS-PAGE
Q: Which results are given for B1?
A: Km [2]: 359 ± 6.2 µM; Vmax [2]: 29.9 µmol/min/mg; Vmax/Km [2]: 83300 µL/min/mg

Source: publication PMC5459902 (Scientific Reports, 2017)
